Reference: the DeepSol protein solubility set

Experiment: soluble on expression in E. coli; label from the status in PepcDB or PDB records

Soluble on expression in E. coli, not soluble:
MGSDKIHHHHHHMIHIRPFQHQDADYRVMADVYNALAPDAPLSAIEWRIRDEIHNPNLPLCRWIGELDGRAGGYAEYYQPTWCADPTHLEMQIVVHPAVQGRGLGRALWQHLQMAWQPLRPHHIWLKVREDWQAGLMFAGRRQFHESRRVWVSRLDLATFDPQPFSGSIERVTAQQIELISFAALATADQGFWQQLYEFERQTTGDVPSPFPVTMPTYDQWIKLYQPDHGALWEGSFAAVHEGQIVGISTLETIDDSTDVEVGFTAVRRDYRGRGIALALKLCTIAYAGAQGLSGIRTDNDSTNLAMWHINERLGFRRGPVWIVLHRCEQNEEVT
MGSDKIHHHHHHMIHWLKVPNNPELAKYIACYWFLEKLPNAEGHNDYPKLNPDPASHLILALPQQNFRYKSDNGVTQMDGCHWLHPHGKTYELDHAKAVACIGIKFHVGALYSLPTFMDLQEQTPQAVVDTVEAISFENINFAQSNFDDHKLSDNNQLNEHDLVILARNSPDDCAEMLDKLCLPWLLKNHEDNHSELTRKVLPLLAKAAINSLGDTLFCSQRTLERSFLKVSGVTLKQCQSMNRLEAILEFLYQREQSDIDWVDIAYQFGFSDQPHLIRYLKKQLGLTPQDYALQRGFTIDVYGGVDSL
MGSDKIHHHHHHMIIEHARDMLKRERLFFDKIQAHIGEVNGTISIGCSSLIGQTLLPEVLSLYNSQFPNVEIQVQVGSTEQIKAHHRDYHVMITRGNKVMNLSNTHLFNDEHYFIYPKDRKEDVTKLPFIEFQADPIYINQIKQWYNDHLGHDYHATITVDQVATCKEMLLSGVGVTILPKIMMKNIDKNMFEFEKVTIDKKPLIRSTYMSYDASMLQLPQVDAFVNLMLNFIR
MGSDKIHHHHHHMIIGGLYMKFFEENYSQEIPTRIKNLRKKHNITQSELGNAGQVSQVESGKRPITSSMLVYLNALTASNYTYIVFGELDEFIENLFHYFFSSILYRDLEAVDENLYSFMSDDLISIQSSCLSIAKTFANFNIQRKRFMISTETEMDTFHKKDDIDVWVGGKSYNPARSFRNNPINELTVIDFEEMADILLLMLRDNLIRSFEINVCNTLFELDKNGEPTTFNLDKIDSIINKWWSENVSTEIIPNLIKKLRENPLFNIGFMVNDILERMYKEDIPKSYLTSVPLVISKKARSTLSIKSNGSQKIDKSKFAQILSL
MGSDKIHHHHHHMIISDVLYGEFEVDQVVEELILSKSVQRLKGIHQTGASYLVNKEWNVTRFDHSVGVMLLVKKLGGSVEEQIAGLLHDVSHTAFSHVVDYVFDNRNESYHEEIFSSVVKHSEIPAILAKYGYNYEEILLDDSKWTLLERSAPELCADRVDYTLRDMYTYGYISLEEAHSFLEDVIEVNGKMVLQNIEMAEWFTETYYKEVIDFFMQPMNSYGNDMLAKTLKLALHKKVIHADDFLLEDDELISKLQQCSDPEVHALVSKVHPNVKVKEDRNDYDLYQNNKVRLIDPSLLREGEVVPSSVVSENIRKMSEIAYEKAVRGMYVKVVSD
MGSDKIHHHHHHMIKNNRVYGIIGVGAYMANFNADLSGYPKTTTNNDIFGSDKALKYPMKRMWLIEGDKVFYIKSMTIAKSKKDKEMEILQPKDLIERYEDLFGKEWDANLTVKDVAKDLFSTVDIMNFGATFTGSESESKTAKKKIGHNISITGAVQINQGFNLYEKTNVLVQDILSPFRNPNDKSEDKTATSIGTKIVTDEAHYVYSFSVNPANYADYLGLIDGFEGYTTEAYEKFKRAARVATTAFNTNSKSGCENELALFIELKEDSKLFLANLDRYVEVRKKEKQTLYDLSKLAEIIAPQQEEIQSIELFHNPISVEVNYGSLPCTVNSIF
MGSDKIHHHHHHMIKQVNPHFKEFLFDWNQKFQFLVGGYGSSKSYHVALKIVLKLLREKRTALVIREVYDTHRDSTFSLFDELVSDLKLDHIVRCVSSPMQIRFSNGSRIIFKGMDKPAKLKSINNISLIWIEECSEVKYEGFKELLGRLRHPTLPLHMILSTNPVGEDNWTFKHFFKDDREKRFVLDDKELYEKRIIVSNDTYYHHSTADDNLFLPESYVQQLEELKEYDPDLYRIARKGHFGVNGIRVLPQFEERPHEEVMTAISNINRPLKRVGMDFGFVESYNAVVRVAVDHEKKYLYIYWEYYKNGLTDDKTAEELKEFAETKELIKADSAEPKTIRYFQQHGFNMVGARKYQGSRLQYTKKIKRFRKIICSDRCENTIYELKPLAYATDKLGNIIEDEFTIDPHTLSAIWYALDDYEVTDLKEESKGRPQRSRPGRR
MGSDKIHHHHHHMILAAKLFGISENGIRVAVTRLASEGVIVSAERGFYQLSEQSLEWADVMLNRRAGLKETKAWNQKYLCVLTGTLGRVDRTALKRRERALKKYGFRELEPSVYIRPDNLVISLEDMLEHMKSIGLESGAKMCHINSFDQITTGMIKDLWQTENLNKNYEKYSHIIQHWLSRVPALGLEDAARESLLLGRQTISLLMNDPLLPEPFVNVEARDQFTADVKKLDEVGQRLWKQLHELTFGTAATSLLNLELPAVADVTPKILN
MGSDKIHHHHHHMILEALQYAATRAVTPKEFRPHVRYSVNLWARANRCAKAWAEHENNSRQFVLQSAKKLKQRRTAVVLGSGLLRDVPHDALVAMFDTVVMVDLVHLASVQAKLRLNAKKNVRIANRDLSGFDDLLAGRPAEPLDFLRRVPYLDFVVSANLLSQIGTGAQHRLEREKIANVPGDLLPKLIQTHLDALAGLPCKVCLVTDTAFDVIGKDGSVQQHEDLLHGIEIASPAAAWDWPLAPFGEESRDYRIVHHVIAREMT
MGSDKIHHHHHHMILKTNLFGHTYQFKSITDVLAKANEEKSGDRLAGVAAESAEERVAAKVVLSKMTLGDLRNNPVVPYETDEVTRIIQDQVNDRIHDSIKNWTVEELREWILDHKTTDADIKRVARGLTSEIIAAVTKLMSNLDLIYGAKKIRVIAHANTTIGLPGTFSARLQPNHPTDDPDGILASLMEGLTYGIGDAVIGLNPVDDSTDSVVRLLNKFEEFRSKWDVPTQTCVLAHVKTQMEAMRRGAPTGLVFQSIAGSEKGNTAFGFDGATIEEARQLALQSGAATGPNVMYFETGQGSELSSDAHFGVDQVTMEARCYGFAKKFDPFLVNTVVGFIGPEYLYDSKQVIRAGLEDHFMGKLTGISMGCDVCYTNHMKADQNDVENLSVLLTAAGCNFIMGIPHGDDVMLNYQTTGYHETATLRELFGLKPIKEFDQWMEKMGFSENGKLTSRAGDASIFLK
MGSDKIHHHHHHMINNYLERQIKENFPYQPTFEQEIAVKSLSEFLLSTLADEVFILRGYAGTGKTSLVGALVKTMDQLQQKAVLLAPTGRAAKVFSSYAGHPAFTIHKKIYRQQSFSNETSNFSINDNLATNTLFIVDEASMISNEGLSGSMFGTGRLLDDLIQFVYSGQGCRLLLMGDTAQLPPVGEELSPALFADALKGYGLEVREVDLTQVVRQIQESGILWNATQLRQLIAEDNCYSLPKIKITGFPDIKMVPGTELIDAITSCYDHDGMDETIVICRSNKRANLYNNGIRAQILWREDELNTGDMLMIAKNNYYWTEQYKEMDFIANGEIAVVRRVRKTREMYGFRFAEVTLRFPDQNDFELDANLLLDTLHSDSPALPKVDNDRLFYTILEDYADISNKRDRMKKMKADPHYNALQVKYAYAITCHKAQGGQWQNVFLDQGYMTDEYLTPDYFRWLYTAFTRATKTLYLVNYPKEQIL
MGSDKIHHHHHHMINQVYRLVSERQFEEANIEEALTEDVVVVRPTYLSICAADQRYYTGSRGKEMLSKKLPMALIHEGVGQVTYDATGEFEIGTKVVMIPNTPTEDDPVIAENYRRSSLFRSSGYDGLMQENVFMRRDRVVRLPENMDMEVAAYSELISVAFHAITRFKQKANANQSVFGVWGDGNLGFITCLLLKTIYPESKVIIFGKTQYKLDFFSFVDEAHLVDEIPEGLVIDNAFECAGGKGSQYAVEQIIDLIKPEGTISLLGVSENPIEFNSRMVLEKGLTVFGSSRSGKEDFQNTVNFLSENERAVEYLSSLIGQRKVVRNLQDIIEAFETDLRNPFGKTVMEWKV
MGSDKIHHHHHHMINRKPFFIELELTYKCSQQCIYCHNPPKDLKFYIADKVPKPRSVIEMNELNLSEWISVINQIKRLDEKYEGIMDVVITGGEPLLRSDLEEILSYVTRQKLRHMLLSSGEPISDDRITKLLESGLEKIRINLTSHKYVFNIQSPIMHIKNEVAKKINIAKKFKDFGVKEVGGNIVLTSYYLDFLEEIAELAYKSNLDWIEIHSVIKVGHGYINQKFIVPDPNDERTIQEKLKRLIEIYGENFIQNYVDTDILYSRIPIPTNWGEVGLVIAPNGDIYPSSEATSIPLSKLGNIKNDSLVEIWFNNLLLNKIRSLSFLREPCKSCEVKKLCRGGFRFNAYITKNDLFAPDPSCQIVKDYIGKS
